Test results taken from US20170015708A1 (BIOKINE THERAPEUTICS, published 2017).

How the values were obtained:
Assay in all cases: cell-based or functional assay
[1] = molecular target: T1, IP-10 (human) (human, UniProt P02778 22-98)
T1 sequence (looked up): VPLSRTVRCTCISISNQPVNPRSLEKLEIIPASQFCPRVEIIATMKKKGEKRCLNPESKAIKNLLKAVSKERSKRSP

[2] = molecular target: MCP-1 (human) (human, UniProt P13500 24-99)
[3] = molecular target: T2, RANTES (human) (human, UniProt P13501 24-91)
T2 sequence (looked up): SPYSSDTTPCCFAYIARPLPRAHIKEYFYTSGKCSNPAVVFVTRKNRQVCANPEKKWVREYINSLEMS

[4] = molecular target: T3, I-TAC (human) (human, UniProt O14625 22-94)
T3 sequence (looked up): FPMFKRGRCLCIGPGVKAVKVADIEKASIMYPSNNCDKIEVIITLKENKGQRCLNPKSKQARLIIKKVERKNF

[5] = molecular target: Eotaxin (human) (human, UniProt P51671 24-97)
[6] = molecular target: T4, MIG (human) (human, UniProt Q07325 23-125)
T4 sequence (looked up): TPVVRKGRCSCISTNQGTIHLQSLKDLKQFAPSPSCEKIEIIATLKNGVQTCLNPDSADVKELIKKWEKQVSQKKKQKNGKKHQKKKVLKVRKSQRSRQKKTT

Measured: Inhibition of chemokine-dependent T cell adhesion to VCAM-1 (++ = 100% inhibition)

MCP-1 (human), sequence (P13500 24-99 limits assumed): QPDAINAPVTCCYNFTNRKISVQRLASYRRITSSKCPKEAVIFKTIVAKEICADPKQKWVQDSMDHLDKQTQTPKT
Eotaxin (human), sequence (P51671 24-97 limits assumed): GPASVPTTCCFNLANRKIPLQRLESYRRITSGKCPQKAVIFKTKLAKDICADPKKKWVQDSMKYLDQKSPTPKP

B1: BKT-P2 peptide (peptide)
peptide: SIPSHSIHSAKA
not listed: [6]
100 % inhibition: all other assays above

B2: BKT-P46 peptide (peptide)
peptide: LDYPIPQTVLHH
100 % inhibition: [6] | [2] | [3] | [4]
